We go through 2 molecules from article PMC4284786, “Refolded scFv Antibody Fragment against Myoglobin Shows Rapid Reaction Kinetics” (International Journal of Molecular Sciences, 2014).

One experiment addresses T1, equine myoglobin (Equus caballus, UniProt P68082).
T1 construct: myoglobin, equine
The experiment in a line: ELISA; proteins coated on a 96-well plate (human myoglobin 5 μg/mL in carbonate buffer pH 9.6, 4 °C, 16 h), blocked with BSA in PBST; scFv or premature antibody added for 1 h at 37 °C; scFv detected by anti-6x His tag antibody and HRP-conjugated secondary antibody; scFv 1.9 μg/mL, IgG2-7Ds 0.5 μg/mL in the comparison of proteins. The conditions noted are these: both partners purified. (In an ELISA, binding on a coated surface is turned into a signal by an enzyme label.)

The next experiment has as its target T2, conalbumin (Gallus gallus (assumed), UniProt P02789).
T2 construct: conalbumin (ovotransferrin)
Described as above. The conditions noted are these: both partners purified.

Experiment [1] deals with T3, human myoglobin (human, UniProt P02144 1-154).
T3 chain: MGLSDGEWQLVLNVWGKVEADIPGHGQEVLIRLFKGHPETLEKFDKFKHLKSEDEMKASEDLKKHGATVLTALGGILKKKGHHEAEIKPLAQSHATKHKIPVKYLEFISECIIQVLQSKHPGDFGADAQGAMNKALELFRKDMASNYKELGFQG
Put plainly: BLI.

Experiment [2] has as its target T3, human myoglobin. The experiment in a line: BLI.
The target in experiment [3] is T4, myoglobin peptide, aa 144–154 (Homo sapiens, UniProt P02144).
T4 construct: also called C-terminal region of the myoglobin peptide; source: synthetic peptide
T4 chain: ASNYKELGFQG
Put plainly: ELISA; synthetic peptides of human myoglobin and human cardiac troponin I; scFv 1.9 μg/mL, IgG2-7Ds 0.5 μg/mL. The conditions noted are these: both partners purified.

In experiment [4] the target is T5, human myoglobin (Homo sapiens, UniProt P02144).
T5 construct: myoglobin, human; also called myoglobin antigen; human myoglobin antigen
The experiment in a line: BLI; Octet Red; human myoglobin (5 μg/mL in PBS, pH 7.4) immobilised on APS sensor tip at 30 °C for 900 s, blocked with 0.5% casein in PBS; scFv in casein-PBS; BSA as negative control. Conditions: both partners purified. (In BLI a coated tip is dipped into the sample, and binding shifts an interference pattern.)

T1 sequence (P68082 whole entry): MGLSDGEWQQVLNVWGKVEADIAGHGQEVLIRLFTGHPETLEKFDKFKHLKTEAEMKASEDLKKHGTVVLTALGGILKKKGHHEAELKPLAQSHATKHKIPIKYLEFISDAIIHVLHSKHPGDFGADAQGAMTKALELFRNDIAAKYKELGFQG
T2 sequence (P02789 20-705): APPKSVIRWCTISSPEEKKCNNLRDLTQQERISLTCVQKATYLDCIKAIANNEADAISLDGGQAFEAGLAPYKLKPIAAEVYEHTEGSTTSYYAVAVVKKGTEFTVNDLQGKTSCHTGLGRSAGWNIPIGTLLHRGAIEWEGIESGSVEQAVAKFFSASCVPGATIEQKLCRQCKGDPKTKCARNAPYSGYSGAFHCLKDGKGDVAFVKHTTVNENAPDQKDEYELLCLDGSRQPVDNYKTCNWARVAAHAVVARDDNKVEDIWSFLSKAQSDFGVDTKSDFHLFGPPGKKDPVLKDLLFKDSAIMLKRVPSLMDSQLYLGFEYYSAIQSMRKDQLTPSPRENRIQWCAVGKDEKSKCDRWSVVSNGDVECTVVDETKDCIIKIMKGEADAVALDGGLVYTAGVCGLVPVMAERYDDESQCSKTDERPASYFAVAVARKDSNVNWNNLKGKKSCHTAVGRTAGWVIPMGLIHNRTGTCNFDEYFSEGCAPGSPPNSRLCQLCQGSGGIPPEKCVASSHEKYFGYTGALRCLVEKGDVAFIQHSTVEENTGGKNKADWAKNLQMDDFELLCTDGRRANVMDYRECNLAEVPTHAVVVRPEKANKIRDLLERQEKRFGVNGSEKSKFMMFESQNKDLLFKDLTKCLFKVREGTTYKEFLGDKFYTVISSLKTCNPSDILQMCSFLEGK

B1: parent premature antibody Myo2-7Ds (whole IgG) (antibody, V domains shown)
VH: QIQLVQSGPELKKPGETVKISCKASGYTFTDYSIHWVRQAPEKGLKWMGWINTETGEPTYADDFTGRFAFSLETSASTAYLQITNLKNEDTATYFCARRFTTTTWFAYWGQGTLVTVSA
VL: DVLMTQTPLSLPVSLGDQASISCRSSQNIVHSSGNTYLEWYLQKPGQSPRFLIYKVSNRFSGVPDRFSGSGSGTDFTLKISRVEAEDLGVYYCFQGSHVPYTFGGGTKLEIK
notes: as the VH of m1; constant part of the heavy chain; as the VL of m1; constant part of the light chain; IgG; The variable regions were the template of the scFv m1; also called IgG2-7Ds; parental antibody
As for B1, the binding result is “binds” with equine myoglobin and “no binding (tested: IgG2-7Ds 0.5 μg/mL)” with conalbumin. In addition, the affinity with human myoglobin [1], expressed as Kd, was 2.89 nM. This molecule yielded a koff with human myoglobin [2] of 0.0104 s⁻¹.

B2: refolded scFv-Myo2-7Ds (scFv, V domains shown)
VH: QIQLVQSGPELKKPGETVKISCKASGYTFTDYSIHWVRQAPEKGLKWMGWINTETGEPTYADDFTGRFAFSLETSASTAYLQITNLKNEDTATYFCARRFTTTTWFAYWGQGTLVTVSA
VL: DVLMTQTPLSLPVSLGDQASISCRSSQNIVHSSGNTYLEWYLQKPGQSPRFLIYKVSNRFSGVPDRFSGSGSGTDFTLKISRVEAEDLGVYYCFQGSHVPYTFGGGTKLEIK
notes: VH of the monoclonal antibody Myo2-7Ds; (GGGGS) x 3 linker between VH and VL; VL of the monoclonal antibody Myo2-7Ds; Plasmid pET28a-scFv-Myo2-7Ds6xH, no pelB leader; A TEV cleavage site stands between the N-terminal His6 tag and the scFv; no cleavage is reported; The abstract gives the order VH-VL, but both printed primers seem to encode ends of a light chain; also called 2-7ds …
As for B2, the binding result with equine myoglobin is “binds”; with conalbumin it was “no binding (tested: scFv 1.9 μg/mL)”; in experiment [3], “binds”. Further, the values for the equilibrium dissociation constant (Kd) with human myoglobin [1] and with human myoglobin [4] were 61.1 nM and 10 nM, respectively. Further, in the experiment with human myoglobin [4], the koff turned out to be 0.00629 s⁻¹. In the experiment with human myoglobin [4], this molecule had a kon of 93200 M⁻¹ s⁻¹.

A word on the Kd: it is the free concentration of one partner at which half of the binding sites on the other are occupied at equilibrium, for simple one-to-one binding. Read a high Kd as weaker binding. Broadly, the koff is the rate constant with which the complex falls apart. Broadly, the kon is a measure of how fast the partners come together. Lower therefore signals slower complex formation.
